Experimental data taken from article PMC7219239, “Folding-Based Electrochemical Aptasensor for the Determination of β-Lactoglobulin on Poly-L-Lysine Modified Graphite Electrodes”.

Target: T1, beta-lactoglobulin B (β-LG) (Bos taurus? (cow's milk), UniProt P02754 17-178)
T1 sequence: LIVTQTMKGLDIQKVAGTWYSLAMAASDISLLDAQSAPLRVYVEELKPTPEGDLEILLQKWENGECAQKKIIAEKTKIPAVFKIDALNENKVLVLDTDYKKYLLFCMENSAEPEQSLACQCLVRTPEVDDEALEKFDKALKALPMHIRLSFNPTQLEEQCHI
Assay: electrochemical folding-based aptasensor (DPV, MB signal-on); PBS-based buffer without MgCl2; 45 min incubation; linear 0.1-10 ng/mL, LOD 0.09 ng/mL; no Kd in the material; Measurement in PBS-based buffer without MgCl2 (wash buffer 0.1 M PBS, 150 mM NaCl, pH 7.4), 45 min; aptamer immobilized at 1 µM in 50 mM Tris, 150 mM NaCl, 2 mM MgCl2, pH 7.4; temperature not stated
Conditions: protein: commercial; chain copies: 2; label: methylene blue (3')

B1: anti-β-LG aptamer, thiolated, MB-tagged (ssDNA)
DNA: CGACGATCGGACCGCAGTACCCACCCACCAGCCCCAACATCATGCCCATCCGTGTGTG
modifications: 5'-thiol (HS); 3'-methylene blue
B1: binds.
